From patent publication US20110229461A1 (UCB, published 2011)
Changes are numbered by the printed parent chain. Names and notes keep the numbering of the source.

B1: 949 VK1 gL15 gH8b (antibody, V domains shown)
VH: EVQLVQSGAEVKKPGSSVKVSCKAFGYTFTTYPIEWMRQAHGQGLEWIGNFHPYNDDTKYNEKFKGRVTITADKSTSTAYMELSSLRSEDTAVYYCARENYGSHGGFVYWGQGTLVTVS
VL: ENVLTQSPFSLSASVGDRVTITCRASSSVISSYLHWYQQKPAKAPKLFIYSTSNLASGVPSRFSGSGSGTDYTLTISSLQPEDFATYYCQQYNSYPLTFGGGTKVEIK
notes: Humanised; human kappa constant (Km3); also called Transient #3
B2: 949 VK1 gL15 gH20b (antibody, V domains shown)
VH: B1 VH with F25S, M37V, H41P, I48M
VL: B1 VL
notes: Humanised; also called Transient #5
B3: 949 VK1 gL15 gH8a (antibody, V domains shown)
VH: B1 VH with S16A, I70M, A72R, K74T, A79V
VL: B1 VL
notes: Humanised; human kappa constant (Km3); also called Transient #2
B4: 949 VK1 gL9 gH20b (antibody, V domains shown)
VH: B1 VH with F25S, M37V, H41P, I48M
VL: B1 VL with S94G
notes: Humanised; human kappa constant (Km3); also called Transient #1
B5: 949 VK1 gL15 gH20a (antibody, V domains shown)
VH: B1 VH with S16A, M37V, H41P, I48M, I70M, A72R, K74T, A79V
VL: B1 VL
notes: Humanised; human kappa constant (Km3); also called Transient #4
B6: 949 VK1 gL9 gH8a (antibody, V domains shown)
VH: B1 VH with S16A, I70M, A72R, K74T, A79V
VL: B1 VL with S94G
notes: Humanised; human kappa constant (Km3)
B7: 949 VK1 gL9 gH8b (antibody, V domains shown)
VH: B1 VH
VL: B1 VL with S94G
notes: as for B6
B8: 949 VK3 gL1 gH1a (antibody, V domains shown)
VH: B1 VH with S16A, I70M, A72V, S77T, A79V
VL: ENVLTQSPGTLSLSPGERATLSCRASSSVISSYLHWYQQKPGQAPRLWIYSTSNLASGVPDRFSGSGSGTSYTLTISRLEPEDFATYYCQQYNGYPLTFGGGTKVEIK
notes: as for B6
B9: 949 VK1 gL9 gH20a (antibody, V domains shown)
VH: B1 VH with S16A, M37V, H41P, I48M, I70M, A72R, K74T, A79V
VL: B1 VL with S94G
notes: as for B6
B10: 949 VK1 gL1 gH1b (antibody, V domains shown)
VH: B1 VH with A72V, S77T, A79V
VL: B1 VL with F48W, S61D, D71S, S94G
notes: as for B6
B11: 949 VK1 gL14 gH8a (antibody, V domains shown)
VH: B1 VH with S16A, I70M, A72R, K74T, A79V
VL: B1 VL with L4M
notes: as for B6
B12: 949 VK1 gL12 gH8a (antibody, V domains shown)
VH: B1 VH with S16A, I70M, A72R, K74T, A79V
VL: B1 VL with L4M, S94G
notes: as for B6
B13: 949 VK1 gL14 gH8b (antibody, V domains shown)
VH: B1 VH
VL: B1 VL with L4M
notes: as for B6
B14: 949 VK3 gL1 gH1b (antibody, V domains shown)
VH: B1 VH with A72V, S77T, A79V
VL: B8 VL
notes: as for B6
B15: 949 VK1 gL12 gH8b (antibody, V domains shown)
VH: B1 VH
VL: B1 VL with L4M, S94G
notes: as for B6
B16: 949 VK1 gL11 gH1a (antibody, V domains shown)
VH: B1 VH with S16A, I70M, A72V, S77T, A79V
VL: B1 VL with F48W, S61D, D71S
notes: as for B6
B17: 949 VK1 gL12 gH20b (antibody, V domains shown)
VH: B1 VH with F25S, M37V, H41P, I48M
VL: B1 VL with L4M, S94G
notes: as for B6
B18: 949 VK1 gL1 gH1a (antibody, V domains shown)
VH: B1 VH with S16A, I70M, A72V, S77T, A79V
VL: B1 VL with F48W, S61D, D71S, S94G
notes: Humanised; human kappa constant (Km3); Heavy V regions were cloned into gamma-4P (S241P), gamma-4P delta Lys and gamma-1 delta Lys vectors
B19: 949 VK3 gL11 gH1a (antibody, V domains shown)
VH: B1 VH with S16A, I70M, A72V, S77T, A79V
VL: B8 VL with G94S
notes: as for B6
B20: 949 VK1 gL12 gH20a (antibody, V domains shown)
VH: B1 VH with S16A, M37V, H41P, I48M, I70M, A72R, K74T, A79V
VL: B1 VL with L4M, S94G
notes: as for B6
B21: antibody CA051-00949 (949), parental variable regions, murine IgG1 (antibody, V domains shown)
VH: QVQLQQSGAELVKPGASVKMSCKAFGYTFTTYPIEWMKQNHGKSLEWIGNFHPYNDDTKYNEKFKGKAKLTVEKSSTTVYLELSRLTSDDSAVYYCARENYGSHGGFVYWGQGTLVTVS
VL: ENVLTQSPAIMSASPGEKVTMTCRASSSVISSYLHWYQQKSGASPKLWIYSTSNLASGVPDRFSGSGSGTSYSLTISSVEAEDAATYYCQQYNGYPLTFGAGTKLEIK
notes: also called Clone 19
B22: 949 chimeric (949 variable regions with human IgG4 constant domains) (antibody, V domains shown)
VH: B21 VH
VL: B21 VL
notes: also called original CA949 construct, cLcH

Biological target: T1, human PD-1 on cells (transfected HEK293 cells; human T cells) (human, UniProt Q15116 25-288)
T1 construct: whole, on cells; HEK293 cells transiently transfected with human PD-1 DNA; also called PD-1 expressing HEK293 cells; PD-1 transfected HEK cells
T1 sequence (Q15116 25-288): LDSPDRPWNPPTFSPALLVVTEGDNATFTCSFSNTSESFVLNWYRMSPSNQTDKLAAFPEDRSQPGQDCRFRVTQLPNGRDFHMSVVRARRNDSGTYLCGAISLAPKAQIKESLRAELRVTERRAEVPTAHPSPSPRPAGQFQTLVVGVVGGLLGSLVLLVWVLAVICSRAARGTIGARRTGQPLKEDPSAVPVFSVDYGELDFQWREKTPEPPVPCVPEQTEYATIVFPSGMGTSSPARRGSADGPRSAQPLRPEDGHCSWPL
Assay: flow cytometry on activated human T cells

| EC50 [µg/mL] | Binder |
| --- | --- |
| 6.09 | B1 |
| 4.1 | B2 |
| 3.15 | B3 |
| 1.14 | B4 |
| 2.89 | B5 |

Biological target: T2, human PD-1 (recombinant, titrated in BIAcore) (human, UniProt Q15116 25-170)
T2 construct: extracellular domain; also called recombinant human PD-1 extracellular domain
T2 sequence (Q15116 25-170): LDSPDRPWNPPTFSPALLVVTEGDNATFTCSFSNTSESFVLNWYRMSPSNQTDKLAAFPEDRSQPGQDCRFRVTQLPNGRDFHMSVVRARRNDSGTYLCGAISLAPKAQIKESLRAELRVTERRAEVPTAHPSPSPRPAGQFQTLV
Assay: SPR BIAcore 3000; antibody captured by anti-human Fc, human PD-1 titrated;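 further: CM5 chip with amine-coupled goat anti-human Fc F(ab′)₂, HBS-EP running buffer at 10 µL/min, blank-surface-subtracted sensorgrams fitted in BIAevaluation 3.2 for kinetic constants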

| Kd [nM] | koff [s⁻¹] | kon [M⁻¹ s⁻¹] | Binder |
| --- | --- | --- | --- |
| 2.35 |  |  | B6 |
| 2.34 |  |  | B7 |
| 4.02 | 0.000844 | 210000 | B8 |
| 3.17 |  |  | B9 |
| 2.92 | 0.000556 | 191000 | B10 |
| 4.75 |  |  | B11 |
| 2.46 |  |  | B12 |
| 4.38 |  |  | B13 |
| 3.14 | 0.00065 | 207000 | B14 |
| 2.77 |  |  | B15 |
| 2.66 |  |  | B4 |
| 5.54 | 0.00115 | 207000 | B16 |
| 3.8 |  |  | B17 |
| 3.71 | 0.000782 | 211000 | B18 |
| 4.89 | 0.00109 | 223000 | B19 |
| 3.38 |  |  | B20 |
| 5.07 |  |  | B21 |
| 5.98 |  |  | B22 |

Biological target: T1, human PD-1 on cells (transfected HEK293 …)
Assay: flow cytometry on activated human T cells; unconstrained curve; unconstrained curve

| EC50 [µg/mL] | Binder |
| --- | --- |
| 1.2 | B22 |

Biological target: T1, human PD-1 on cells (transfected HEK293 …)
Assay: flow cytometry on activated human T cells; top of curve constrained; top part of curve constrained to ~45 geo mean

| EC50 [µg/mL] | Binder |
| --- | --- |
| 3.61 | B22 |
